From patent US20250018039A1 (published 2025)

Molecular target: T1, wild-type human RAS (KRAS) peptide on HLA-A*03:01 (human)
T1 peptide: VVVGAGGVGK
Assay: cytokine release
Procedure: Cos7 cells transduced with human HLA A*03:01 were independently pulsed with the G12V RAS peptide […] (SEQ ID NO: 33) or the corresponding wild-type peptide […] The transduced cells (effector cells) were co-cultured with the peptide-pulsed target cells. Interferon-gamma secretion was measured.

B1: TCR 807 (TCR, V domains shown)
Valpha: QQKVQQSPESLSVPEGGMASLNCTSSDRNFQYFWWYRQHSGEGPKALMSIFSDGDKKEGRFTAHLNKASLHVSLHIRDSQPSDSALYFCAARPGTQVVGQLTFGRGTRLQVYA
Vbeta: AQTIHQWPVAEIKAVGSPLSLGCTIKGKSSPNLYWYWQATGGTLQQLFYSITVGQVESVVQLNLSASRPKDDQFILSTEKLLLSHSGFYLCAWRDRPSSYEQYFGPGTRLTVL
- binding result: no recognition
